Measured values from publication PMC5503505 (Nature structural & molecular biology, 2017).

B1: Orc5 (natural protein)
chain: MNVTTPEVAFREYQTNCLASYISADPDITPSNLILQGYSGTGKTYTLKKYFNANPNLHAVWLEPVELVSWKPLLQAIARTVQYKLKTLYPNIPTTDYDPLQVEEPFLLVKTLHNIFVQYESLQEKTCLFLILDGFDSLQDLDAALFNKYIKLNELLPKDSKINIKFIYTMLETSFLQRYSTHCIPTVMFPRYNVDEVSTILVMSRCGELMEDSCLRKRIIEEQITDCTDDQFQNVAANFIHLIVQAFHSYTGNDIFALNDLIDFKWPKYVSRITKENIFEPLALYKSAIKLFLSTDDNLSENGQGESAITTNRDDLENSQTYDLSIISKYLLIASYICSYLEPRYDASIFSRKTRIIQGRAAYGRRKKKEVNPRYLQPSLFAIERLLAIFQAIFPIQGKAESGSLSALREESLMKANIEVFQNLSELHTLKLIATTMNKNIDYLSPKVRWKVNVPWEIIKEISESVHFNISDYFSDIHE
B2: Orc3 (natural protein)
chain: MSDLNQSKKMNVSEFADAQRSHYTVYPSLPQSNKNDKHIPFVKLLSGKESEVNVEKRWELYHQLHSHFHDQVDHIIDNIEADLKAEISDLLYSETTQKRRCFNTIFLLGSDSTTKIELKDESSRYNVLIELTPKESPNVRMMLRRSMYKLYSAADAEEHPTIKYEDINDEDGDFTEQNNDVSYDLSLVENFKRLFGKDLAMVFNFKDVDSINFNTLDNFIILLKSAFKYDHVKISLIFNINTNLSNIEKNLRQSTIRLLKRNYHKLDVSSNKGFKYGNQIFQSFLDTVDGKLNLSDRFVEFILSKMANNTNHNLQLLTKMLDYSLMSYFFQNAFSVFIDPVNVDFLNDDYLKILSRCPTFMFFVEGLIKQHAPADEILSLLTNKNRGLEEFFVEFLVRENPINGHAKFVARFLEEELNITNFNLIELYHNLLIGKLDSYLDRWSACKEYKDRLHFEPIDTIFQELFTLDNRSGLLTQSIFPSYKSNIEDNLLSWEQVLPSLDKENYDTLSGDLDKIMAPVLGQLFKLYREANMTINIYDFYIAFRETLPKEEILNFIRKDPSNTKLLELAETPDAFDKVALILFMQAIFAFENMGLIKFQSTKSYDLVEKCVWRGI

Tests used:
Assay in all cases: cryo-EM structure
Mcm2 = biological target: T1, Mcm2 (S. cerevisiae, UniProt P29469 1-868)
T1 sequence: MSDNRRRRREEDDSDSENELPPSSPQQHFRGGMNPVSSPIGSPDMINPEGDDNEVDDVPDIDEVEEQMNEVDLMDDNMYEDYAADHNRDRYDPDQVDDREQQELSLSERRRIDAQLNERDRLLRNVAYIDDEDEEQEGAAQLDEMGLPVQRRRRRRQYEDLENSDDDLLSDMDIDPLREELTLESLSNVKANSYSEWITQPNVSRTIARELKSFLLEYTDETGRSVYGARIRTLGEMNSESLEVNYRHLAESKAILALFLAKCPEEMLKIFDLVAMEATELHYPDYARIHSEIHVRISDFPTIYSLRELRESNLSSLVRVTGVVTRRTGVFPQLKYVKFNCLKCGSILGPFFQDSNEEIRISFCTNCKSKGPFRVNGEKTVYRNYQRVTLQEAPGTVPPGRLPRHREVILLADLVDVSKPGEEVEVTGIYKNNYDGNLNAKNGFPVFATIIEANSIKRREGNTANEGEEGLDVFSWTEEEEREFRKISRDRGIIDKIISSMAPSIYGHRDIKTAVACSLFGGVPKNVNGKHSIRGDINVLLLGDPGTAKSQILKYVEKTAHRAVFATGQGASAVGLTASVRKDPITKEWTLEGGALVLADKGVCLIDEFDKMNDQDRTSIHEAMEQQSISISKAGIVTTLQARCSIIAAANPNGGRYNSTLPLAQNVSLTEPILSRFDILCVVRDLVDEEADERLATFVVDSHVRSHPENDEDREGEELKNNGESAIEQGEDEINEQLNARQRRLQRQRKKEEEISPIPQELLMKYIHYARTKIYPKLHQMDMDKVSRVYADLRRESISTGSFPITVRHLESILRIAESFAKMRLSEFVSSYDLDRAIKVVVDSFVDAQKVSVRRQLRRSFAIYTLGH

Mcm6 = Mcm6 (S. cerevisiae, UniProt P53091 1-1017)
Orc3 = biological target: B2
Orc4 = biological target: T2, Orc4 (S. cerevisiae, UniProt P54791 1-529)
T2 sequence: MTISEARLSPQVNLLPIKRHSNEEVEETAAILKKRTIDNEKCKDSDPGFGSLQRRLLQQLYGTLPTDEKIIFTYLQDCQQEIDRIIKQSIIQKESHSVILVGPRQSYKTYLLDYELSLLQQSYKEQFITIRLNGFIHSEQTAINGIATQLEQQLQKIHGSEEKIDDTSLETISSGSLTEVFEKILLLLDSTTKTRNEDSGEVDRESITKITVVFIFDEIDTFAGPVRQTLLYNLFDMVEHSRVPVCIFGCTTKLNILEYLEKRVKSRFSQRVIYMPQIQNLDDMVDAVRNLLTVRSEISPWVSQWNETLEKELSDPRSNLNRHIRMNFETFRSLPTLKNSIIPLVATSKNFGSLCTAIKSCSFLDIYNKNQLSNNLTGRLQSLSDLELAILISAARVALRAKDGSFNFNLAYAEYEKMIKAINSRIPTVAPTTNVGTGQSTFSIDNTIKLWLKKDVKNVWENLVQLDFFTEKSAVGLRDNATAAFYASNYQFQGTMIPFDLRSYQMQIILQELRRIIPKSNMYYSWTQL

Orc2 = biological target: T3, Orc2 (S. cerevisiae, UniProt P32833 1-620)
T3 sequence: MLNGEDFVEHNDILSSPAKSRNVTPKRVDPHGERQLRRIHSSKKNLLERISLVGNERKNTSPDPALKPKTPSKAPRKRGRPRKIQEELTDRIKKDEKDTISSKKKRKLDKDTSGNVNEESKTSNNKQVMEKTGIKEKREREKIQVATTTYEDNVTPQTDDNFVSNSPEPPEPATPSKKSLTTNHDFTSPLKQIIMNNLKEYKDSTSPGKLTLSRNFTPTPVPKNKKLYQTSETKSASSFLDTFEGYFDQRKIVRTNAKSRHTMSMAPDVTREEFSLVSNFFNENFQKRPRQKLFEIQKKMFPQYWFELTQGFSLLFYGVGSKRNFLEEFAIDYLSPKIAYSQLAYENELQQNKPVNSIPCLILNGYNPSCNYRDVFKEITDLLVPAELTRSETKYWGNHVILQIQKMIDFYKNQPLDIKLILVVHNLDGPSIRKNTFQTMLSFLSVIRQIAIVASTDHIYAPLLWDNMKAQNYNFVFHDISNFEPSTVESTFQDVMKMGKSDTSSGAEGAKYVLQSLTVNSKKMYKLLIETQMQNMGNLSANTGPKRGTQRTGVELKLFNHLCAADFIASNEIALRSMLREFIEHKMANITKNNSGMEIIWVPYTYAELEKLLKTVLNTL

Mcm6, sequence (P53091 whole entry): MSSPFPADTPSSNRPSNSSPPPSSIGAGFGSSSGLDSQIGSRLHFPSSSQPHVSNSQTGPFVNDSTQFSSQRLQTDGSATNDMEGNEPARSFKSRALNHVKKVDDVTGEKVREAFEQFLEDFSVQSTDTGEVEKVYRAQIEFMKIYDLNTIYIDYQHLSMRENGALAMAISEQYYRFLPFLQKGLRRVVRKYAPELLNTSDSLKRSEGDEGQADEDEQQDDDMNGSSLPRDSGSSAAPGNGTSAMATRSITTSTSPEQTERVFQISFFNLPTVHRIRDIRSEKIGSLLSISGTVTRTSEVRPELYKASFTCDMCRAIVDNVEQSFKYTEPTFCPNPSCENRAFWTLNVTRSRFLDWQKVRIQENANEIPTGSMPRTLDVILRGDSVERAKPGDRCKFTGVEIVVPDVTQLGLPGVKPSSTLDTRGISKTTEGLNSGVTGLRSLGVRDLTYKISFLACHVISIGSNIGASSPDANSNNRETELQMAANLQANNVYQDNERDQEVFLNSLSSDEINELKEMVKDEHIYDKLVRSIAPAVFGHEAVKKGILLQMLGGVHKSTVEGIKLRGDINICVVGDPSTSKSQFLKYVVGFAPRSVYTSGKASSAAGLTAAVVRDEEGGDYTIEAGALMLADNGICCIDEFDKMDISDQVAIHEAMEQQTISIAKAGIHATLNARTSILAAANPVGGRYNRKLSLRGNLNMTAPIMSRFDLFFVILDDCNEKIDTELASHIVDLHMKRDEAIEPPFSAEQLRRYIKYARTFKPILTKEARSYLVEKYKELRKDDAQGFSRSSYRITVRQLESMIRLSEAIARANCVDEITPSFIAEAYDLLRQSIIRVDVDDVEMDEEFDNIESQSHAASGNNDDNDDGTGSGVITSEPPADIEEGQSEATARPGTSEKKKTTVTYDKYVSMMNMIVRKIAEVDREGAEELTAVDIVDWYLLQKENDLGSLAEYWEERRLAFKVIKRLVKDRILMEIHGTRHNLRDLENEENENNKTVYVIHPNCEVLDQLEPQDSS

Row | Binder | binding result (Mcm2) | binding result (Mcm6) | binding result (Orc3) | binding result (Orc4) | binding result (Orc2)
1 | B1 | binds | binds | binds | binds | –
2 | B2 | – | – | – | – | binds
